Measured values taken from patent US20240148885A1, “TARGETED BIFUNCTIONAL DEGRADERS” (YALE UNIVERSITY, priority 2021, published 2024).
Like-named read-outs stand apart in the source and are kept apart here.

Tests used:
streptavidin AF488 = streptavidin AF488 (Streptomyces avidinii, UniProt P22629); assay: Degradation of streptavidin AF488 (FIG. 12); type: cell-based
From the text: Some studies have been done on other bifunctional molecules comprising an LRP1 binding motif depicted in FIG. 2 and a biotin Target binding motif, wherein these bifunctional molecules also noncovalently bind streptavidin (FIG. 11).

[1] = tested on: murine brain endothelial cells; conditions: noncovalently bound streptavidin AF647 cargo, FIG. 8, FIG. 9
streptavidin = streptavidin (Streptomyces avidinii, UniProt P22629); assay: ELISA: biotinylated Angiopep-2 binding to streptavidin (FIG. 7)
astrocytes = assay: Cellular assay: internalization of streptavidin in astrocytes (FIG. 9); type: cell-based; conditions: noncovalently bound cargo
streptavidin AF647 = streptavidin AF647 (Streptomyces avidinii, UniProt P22629); assay: Saturable delivery (uptake) of streptavidin AF647 (FIG. 6); type: cell-based; conditions: increasing concentration of bifunctional molecule, cells not given
streptavidin AF647, sequence (P22629 25-183): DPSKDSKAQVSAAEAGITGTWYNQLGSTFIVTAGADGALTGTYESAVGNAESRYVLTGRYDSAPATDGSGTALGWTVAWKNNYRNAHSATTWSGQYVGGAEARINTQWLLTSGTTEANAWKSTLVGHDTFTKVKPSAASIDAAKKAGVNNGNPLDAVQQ

streptavidin, sequence (P22629 25-183, species assumed): as the sequence (P22629 25-183) above
streptavidin AF488, sequence (P22629 25-183): as above

| Substance | degradation of target protein streptavidin AF488 (streptavidin AF488) | delivery / internalization of streptavidin into brain endothelial cells [1] | delivery / internalization of streptavidin into brain endothelial cells ([1]; listed as Angiopep-2-Biotin) | binding to streptavidin (ELISA) (streptavidin) | internalization of streptavidin into astrocytes (astrocytes) | level of streptavidin AF647 uptake (streptavidin AF647) |
| --- | --- | --- | --- | --- | --- | --- |
| Ac.Ac.Biotin Angiopep-2: Angiopep-2 modified via acetylation and bonded to a biotin Target binding motif | mediated degradation of streptavidin AF488 | – | – | – | – | – |
| biotinylated Angiopep-2 | – | delivers streptavidin AF647 to murine brain endothelial cells | mediated internalization of target protein Streptavidin | binds streptavidin | mediated internalization of target protein Streptavidin | saturable delivery of streptavidin AF647 |
